Results reported in article doi:10.1101/2021.07.22.453419 (2021).

Molecular target: T1, Papain (E.C.3.4.22.2, from papaya latex) (papaya, UniProt P00784 134-345)
T1 chain: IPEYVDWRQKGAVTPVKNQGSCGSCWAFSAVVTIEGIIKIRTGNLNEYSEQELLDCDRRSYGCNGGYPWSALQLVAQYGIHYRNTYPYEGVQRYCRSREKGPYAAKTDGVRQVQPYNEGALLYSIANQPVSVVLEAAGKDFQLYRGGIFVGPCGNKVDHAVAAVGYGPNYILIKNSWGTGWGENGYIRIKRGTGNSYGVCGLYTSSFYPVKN

B1: tomato cystatin SlCYS8 (natural protein)
chain: NPGGITNVPFPNLPQFKDLARFAVQDYNKKENAHLEFVENLNVKEQVVAGIIYYITLVATDAGKKKIYETKILVKGWENFKEVQEFKLVGDATK
B1 showed a Ki of 14.7 nM.
